In the supplement of paper PMC10567573:
± gives the standard deviation.

Assay: protein stability index of a GFP-peptide fusion (GPS, HEK-293T) (PSI 1-6); higher = more stable
Conditions: c terminus: a fixed tail appended
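Further: 24-mer peptide tiles fused after GFP, lentivirally expressed, FACS-sorted into six equal bins by GFP/DsRed ratio, decoded by Illumina sequencing, PSI is the read-weighted mean bin number.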

Sequence: PSRREPPPRRSRSRSHDRLPYQRR [CLK3]
- protein stability index (treatment: DMSO): 5.23 ± 0.19
- protein stability index (treatment: MLN4924 1 uM, 8 h): 5.23 ± 0.14

Sequence: YFTQTLLPGLAGPSGEMVKSTTSL [MLH1]
- protein stability index (treatment: MLN4924 1 uM, 8 h): 2.51 ± 0.21

Sequence: YNIRTDSWTTVTSMTTPRCYVGAT [KLHL12]
- protein stability index (treatment: DMSO): 2.44 ± 0.23
- protein stability index (treatment: MLN4924 1 uM, 8 h): 2.67 ± 0.33

Sequence: VSAYVDTTADLDRKLSFSHSDHSS [SPATS1]
- protein stability index (treatment: DMSO): 3.83 ± 0.1
- protein stability index (treatment: MLN4924 1 uM, 8 h): 4.08 ± 0.24

Sequence: YLEVAKHFKPHGFSSDKAKAGSSE [ATF4]
- protein stability index (treatment: DMSO): 3.97 ± 0.092
- protein stability index (treatment: MLN4924 1 uM, 8 h): 4.24 ± 0.33

Sequence: ITMYAVGVGKAIEEELQEIASEPT [MATN2]
- protein stability index (treatment: DMSO): 3.18 ± 0.13
- protein stability index (treatment: MLN4924 1 uM, 8 h): 3.16 ± 0.19

Sequence: SVRRSESWARPRPDEERPLRRPRP [RASAL3]
- protein stability index (treatment: DMSO): 4.92 ± 0.096
- protein stability index (treatment: MLN4924 1 uM, 8 h): 4.68 ± 0.29

Sequence: LLRPKYRAPQGCSGVDECARQEGL [PBXIP1]
- protein stability index (treatment: DMSO): 3.56 ± 0.23
- protein stability index (treatment: MLN4924 1 uM, 8 h): 3.65 ± 0.37

Sequence: TLKQQHQQAVEQIAKAEETHSSLS [CCDC89]
- protein stability index (treatment: DMSO): 5.07 ± 0.21
- protein stability index (treatment: MLN4924 1 uM, 8 h): 5.09 ± 0.14

Sequence: MSIVIPLGVDTAETSYLEMAAGSE [KMT2E]
- protein stability index (treatment: DMSO): 2.76 ± 0.51
- protein stability index (treatment: MLN4924 1 uM, 8 h): 2.74 ± 0.39

Sequence: GDSHYEIEIVHISTVQILTEGFPP [ZFYVE21]
- protein stability index (treatment: DMSO): 2.71 ± 0.8
- protein stability index (treatment: MLN4924 1 uM, 8 h): 2.85 ± 0.78

Sequence: EIITQSPGRSSVASPRRLSNVSSS [MAP2]
- protein stability index (treatment: DMSO): 3.43 ± 0.18
- protein stability index (treatment: MLN4924 1 uM, 8 h): 3.66 ± 0.2

Sequence: STFSTNYRSLGSVQAPSYGARPVS [KRT18]
- protein stability index (treatment: DMSO): 3.53 ± 0.16
- protein stability index (treatment: MLN4924 1 uM, 8 h): 3.61 ± 0.2

Sequence: CRFLLNSRVTDAAFNFLLVWYYCT [TMEM120A]
- protein stability index (treatment: DMSO): 2.85 ± 0.74
- protein stability index (treatment: MLN4924 1 uM, 8 h): 2.38 ± 0.48

Sequence: LTAHLLPPRQALGSLCSPWAAPRV [YPEL3]
- protein stability index (treatment: DMSO): 2.56 ± 0.36
- protein stability index (treatment: MLN4924 1 uM, 8 h): 2.45 ± 0.36

Sequence: PDPLNICVFILLLVFIVVKCFTSE [RTP4]
- protein stability index (treatment: DMSO): 2.97 ± 1.2
- protein stability index (treatment: MLN4924 1 uM, 8 h): 2.72 ± 0.81

Sequence: MAVALGCAIQASLNQGSVFQEYDT [ZNF449]
- protein stability index (treatment: DMSO): 3.91 ± 0.54
- protein stability index (treatment: MLN4924 1 uM, 8 h): 2.88 ± 1.2

Sequence: LAALCLAGPPAPARACQLPSEWRP [CCDC3]
- protein stability index (treatment: DMSO): 2.96 ± 0.2
- protein stability index (treatment: MLN4924 1 uM, 8 h): 2.92 ± 0.058

Sequence: DALTKLEQGEPLWTLEDEIHSPAH [ZNF649]
- protein stability index (treatment: DMSO): 3.49 ± 0.35
- protein stability index (treatment: MLN4924 1 uM, 8 h): 3.65 ± 0.24

Sequence: CICWSPFLVTMANIGINGNHSLET [PTGFR]
- protein stability index (treatment: DMSO): 2.82 ± 0.26
- protein stability index (treatment: MLN4924 1 uM, 8 h): 2.84 ± 0.73

Sequence: DASEAHESSSRGEAGAPGEEDIQG [CHGB]
- protein stability index (treatment: DMSO): 5.69 ± 0.3
- protein stability index (treatment: MLN4924 1 uM, 8 h): 5.56 ± 0.28

Sequence: PRPRRAKRFASLSRFVETLVVADD [ADAMTS4]
- protein stability index (treatment: DMSO): 3.65 ± 0.45
- protein stability index (treatment: MLN4924 1 uM, 8 h): 3.69 ± 0.12

Sequence: DDDDHDDHEDNDKMNDSEGMDPER [NOL4L]
- protein stability index (treatment: DMSO): 5.54 ± 0.29
- protein stability index (treatment: MLN4924 1 uM, 8 h): 5.54 ± 0.23

Sequence: ELAGVDTELLAERFYYQALSVAPQ [SMG5]
- protein stability index (treatment: DMSO): 2.68 ± 0.25
- protein stability index (treatment: MLN4924 1 uM, 8 h): 2.88 ± 0.16

Sequence: TQHHFAFQNAERAFKAAALIQRWY [PPEF2]
- protein stability index (treatment: DMSO): 3.09 ± 0.14
- protein stability index (treatment: MLN4924 1 uM, 8 h): 3.08 ± 0.18

Sequence: VVAVDRDSGQNAWLSYRLLKASEP [PCDHGA10]
- protein stability index (treatment: DMSO): 2.56 ± 0.17
- protein stability index (treatment: MLN4924 1 uM, 8 h): 2.6 ± 0.31

Sequence: GLSPSIDTLDHIRALDRLQEVPHE [PPP2CA]
- protein stability index (treatment: DMSO): 4.91 ± 0.22
- protein stability index (treatment: MLN4924 1 uM, 8 h): 4.87 ± 0.14

Sequence: RYPELDTPKLDCFLSGMEAAPRTL [TBX6]
- protein stability index (treatment: DMSO): 3.5 ± 0.27
- protein stability index (treatment: MLN4924 1 uM, 8 h): 3.58 ± 0.2

Sequence: FQGSQGRAYLFNSVVNVGCGPAEE [YPEL3]
- protein stability index (treatment: DMSO): 2.57 ± 0.27
- protein stability index (treatment: MLN4924 1 uM, 8 h): 3.22 ± 0.1

Sequence: GVIRMWADEGSRNSRFQMLFTSFQ [NETO1]
- protein stability index (treatment: DMSO): 2.34 ± 0.4
- protein stability index (treatment: MLN4924 1 uM, 8 h): 2.27 ± 0.28

Sequence: RAQYDELARKNREELDKYWSQQIE [KRT18]
- protein stability index (treatment: DMSO): 3.43 ± 0.27
- protein stability index (treatment: MLN4924 1 uM, 8 h): 3.97 ± 0.85

Sequence: SEMECQNQEYKMLLDIKTRLEQEI [KRT13]
- protein stability index (treatment: DMSO): 3.72 ± 0.26
- protein stability index (treatment: MLN4924 1 uM, 8 h): 3.82 ± 0.32

Sequence: TPKCSSPRGQEGSRQDKPLSPAGS [YJU2B]
- protein stability index (treatment: DMSO): 5 ± 0.23
- protein stability index (treatment: MLN4924 1 uM, 8 h): 5.21 ± 0.23
